From patent US10029000B2, “Uses of IL-12 in hematopoiesis” (University of Southern California, priority 2003, dated 2018)
“Also recorded” adds a separate entry of the source.

Assays:
[1] = system: peripheral blood cells; assay: Blood cell recovery after chemotherapeutic drug Cytoxan; type: in vivo, mice; conditions: Cytoxan 300 mg/kg, IL-12 36 hrs before or 12 hrs after, n=5
Experimental: FIG. 9A: white blood cell; FIG. 9B: red blood cell; FIG. 9C: platelet; FIG. 9D: lymphocyte; FIG. 9E: monocyte; FIG. 9F: neutrophile. Cytoxan is name for cyclophosphamide.
A study was conducted to determine whether IL-12 administration promotes multi-lineage blood cell recovery when used in conjunction with a chemotherapeutic drug. In this example, use of IL-12 is as an adjuvant or ancillary therapy to the primary therapy of chemotherapy. IL-12 was administrated at different time (36 hrs before or 12 hrs after chemotherapy). Mice in this study received a relatively high dose of chemotherapeutic drug Cytoxan (e.g., 300 mg/kg). At different time post-cytoxan treatment, peripheral blood was collected via tail vein for blood cell count study. (Mascot). FIG. 9A white blood cell count; B: red blood cell count; C: platelet count.

[2] = system: long-term repopulating HSC; assay: Secondary bone marrow transplantation of IL-12 rescued marrow; type: in vivo, mice (Ly5.2 donor, Ly5.1 recipient); conditions: donor derived T/B and M/G cells detected
Excerpt: FIG. 5D-F: Secondary bone marrow transplantation was employed to detect if IL-12 can protect long-term repopulating HSC. Six month after lethal dose radiation and IL-12 rescue, bone marrow cells from these mice (Ly 5.2) were isolated and transplanted to secondary lethally irradiated mice (Ly 5.1). Four months after transplantation, donor cells (Ly5.2) were examined in recipient's peripheral blood.
The following gives some further experimental details. Six months after the rescue from lethal dose radiation (IL-12 treated mice, C57BL/Ly5.2), whole bone marrow cells were isolated and 1×10^6 cells were transplanted to secondary lethally irradiated mice (C57BL/Ly5.1). 4 months after transplantation, blood cells were collected and stained with anti-Ly5.2 and anti-Mac-1/anti-Gr-lantibodies (5D), and anti-Ly5.2 and anti-CD3/anti-B220 antibodies (5E) and anti-Ly5.2 antibody (5F). […]
Ly5.2 strain mice rescued by IL-112 treatment before or after lethal irradiation were sacrificed after 6 months. […] 4 months after the transplantation, peripheral blood cells were analyzed for Ly5.2 cells (anti-Ly5.2 antibody conjugated with FITC) with T cell and B cell markers (anti-CD3 and anti-B220 antibody conjugated with PE) and with macrophage and granulocyte cell markers (anti-CD11b and anti-Gr1 antibody conjugated with PE) using FACS. […]

[3] = system: lethally irradiated mice; assay: Radioprotection assay: survival of mice after total body lethal irradiation; type: in vivo, mice (C57BL/6J); conditions: for animals with long-term survival (more than one year): 100 ng/mouse (5 ug/Kg)
Experimental: Mice received recombinant murine IL-12 (100 ng/mouse (which is about 5 ug/kg on average), intravenous injection) before (24 hours) or after (1 hour) lethal dose radiation (1000 rad). Mice in control group received equal volume of PBS buffer. Survival rate were analyzed by Kaplan-Meier method and p value was calculated using Log Rank Test.
To determine the minimum effective radioprotective dose of IL-12, different dose of IL-112 were administered to lethally irradiated animals before (24 hours before) or post (within one hour) lethal dose ionizing radiation.
IL-12 was administrated to mice at different doses 24 hours before radiation to determine if there is a dose dependent relationship between the concentration of IL-12 administration and survival from lethal irradiation.
To further explore the relationship of IL-12 hematopoietic rescue effect as it may relate to the time of administration, IL-12 was administrated to lethally irradiated animals at different time before and after the radiation. The following time points were tested: −48, −36, −24, and −12 hours before radiation, or +1, +12, +24, and +36 hours post radiation.
A study was conducted to determine if the radioprotective effect of IL-12 administration is specific and INF- ? independent. […] Also, an assessment was made to determine if there was a synergistic effect between GM-CSF and IL-12.
Mice were provided with acid water for one week before the radioprotection assay. Cytokines, diluted in phosphate buffered saline (PBS), pH 7.4, were intravenously injected into mice before or after total body lethal irradiation (TBI) at the specified times. Control group mice were injected with PBS buffer. For TBI, mice were either exposed twice to ionizing irradiation ( ? -ray from Cesium 137) at 500 rad dose with a 3 hour interval, or one time at a dose of 1000 rad in a Gammacell 40 machine from Atomic Energy of Canada LTD (Kanafa, Ontario, Canada). The ? -ray exposure rate is 1 Gy/min. […] After irradiation, mice were given water containing antibiotics. For the survival curve, the Kaplan-Meier method was used. Each experiment was repeated three or more times.

[4] = cytokine given 1 hour post lethal dose radiation

B1: IL-12: Recombinant murine interleukin 12, heterodimeric cytokine (p35+p40), purchased from R&D Systems or PeproTech (protein, UniProt P43431 23-215; P43432 23-335, looked up)
Interleukin-12 subunit alpha: RVIPVSGPARCLSQSRNLLKTTDDMVKTAREKLKHYSCTAEDIDHEDITRDQTSTLKTCLPLELHKNESCLATRETSSTTRGSCLPPQKTSLMMTLCLGSIYEDLKMYQTEFQAINAALQNHNHQQIILDKGMLVAIDELMQSLNHNGETLRQKPPVGEADPYRVKMKLCILLHAFSTRVVTINRVMGYLSSA
Interleukin-12 subunit beta: MWELEKDVYVVEVDWTPDAPGETVNLTCDTPEEDDITWTSDQRHGVIGSGKTLTITVKEFLDAGQYTCHKGGETLSHSHLLLHKKENGIWSTEILKNFKNKTFLKCEAPNYSGRFTCSWLVQRNMDLKFNIKSSSSSPDSRAVTCGMASLSAEKVTLDQRDYEKYSVSCQEDVTCPTAEETLPIELALEARQQNKYENYSTSFFIRDIIKPDPPKNLQMKPLKNSQVEVSWEYPDSWSTPHSYFSLKFFVRIQRKKEKMKETEEGCNQKGAFLVEKTSTEVQCKGGNVCVQAQDRYYNSSCSKWACVPCRVRS
blood cell recovery versus control [1]: better blood cell recovery | protection of long-term repopulating cells [2]: protects long-term repopulating cells | animals with long-term survival (more than one year) ([3]; 24 hours before lethal radiation): 95% | animals with long-term survival (more than one year) ([3]; post lethal radiation): 75% | survival difference versus control (Kaplan-Meier, Log Rank Test) ([3]; 100 ng/mouse i.v., 24 hours before or 1 hour after 1000 rad, p<0.001): statistically significant; also recorded: significant better survival | Survives (30 days) ([3]; IL-12 dose 5 ng/mouse, 24 hours before radiation, 5 mice): 0 | Survival rate (%) ([3]; IL-12 dose 5 ng/mouse, 24 hours before radiation, 30 days): 0% | Survives (30 days) ([3]; IL-12 dose 10 ng/mouse, 24 hours before radiation, 5 mice): 0 | Survival rate (%) ([3]; IL-12 dose 10 ng/mouse, 24 hours before radiation, 30 days): 0% | Survives (30 days) ([3]; IL-12 dose 25 ng/mouse, 24 hours before radiation, 5 mice): 2 | Survival rate (%) ([3]; IL-12 dose 25 ng/mouse, 24 hours before radiation, 30 days): 40% | Survives (30 days) ([3]; IL-12 dose 50 ng/mouse, 24 hours before radiation, 5 mice): 3 | Survival rate (%) ([3]; IL-12 dose 50 ng/mouse, 24 hours before radiation, 30 days): 60% | Survives (30 days) ([3]; IL-12 dose 100 ng/mouse, 24 hours before radiation, 5 mice): 4 | Survival rate (%) ([3]; IL-12 dose 100 ng/mouse, 24 hours before radiation, 30 days): 80% | Survives (30 days) ([3]; IL-12 dose 200 ng/mouse, 24 hours before radiation, 5 mice): 3 | Survival rate (%) ([3]; IL-12 dose 200 ng/mouse, 24 hours before radiation, 30 days): 60% | Survival rate (%) [3, 4]: 80% | radioprotective effect [3, 4]: only cytokine tested that can protect mice from lethal dose radiation | Survives ([3]; cytokine given 1 hour post lethal dose radiation, 4-5 mice per group): 4 | survival at higher dose ([3]; higher dose (up to 50 ug/kg) compared with 5 ug/kg): did not yield greater survival | Survival rate (%) ([3]; injection 1 hr after lethal irradiation): 80% | Survives ([3]; injection 1 hr after lethal irradiation, 5 mice): 4 | Survival rate (%) ([3]; injection 12 hrs after lethal irradiation): 0% | Survives ([3]; injection 12 hrs after lethal irradiation, 5 mice): 0 | Survival rate (%) ([3]; injection 12 hrs before lethal irradiation): 20% | Survives ([3]; injection 12 hrs before lethal irradiation, 10 mice): 2 | Survival rate (%) ([3]; injection 24 hrs after lethal irradiation): 20% | Survives ([3]; injection 24 hrs after lethal irradiation, 10 mice): 2 | Survival rate (%) ([3]; injection 24 hrs before lethal irradiation): 100% | Survives ([3]; injection 24 hrs before lethal irradiation, 10 mice): 10 | Survival rate (%) ([3]; injection 36 hrs after lethal irradiation): 0% | Survives ([3]; injection 36 hrs after lethal irradiation, 5 mice): 0 | Survival rate (%) ([3]; injection 36 hrs before lethal irradiation): 0% | Survives ([3]; injection 36 hrs before lethal irradiation, 10 mice): 0 | Survival rate (%) ([3]; injection 48 hrs before lethal irradiation): 0% | Survives ([3]; injection 48 hrs before lethal irradiation, 10 mice): 0 | best administration time for radioprotection ([3]; lethal dose radiation): 24 hours before or 1 hour post radiation | optimal radioprotective dose (best survival rate) ([3]; mice, lethal dose radiation): 5 µg/kg
